According to patent US5158935A, “Human epidermal growth factor having substitution at position 11” (Chiron Corporation, priority 1989, dated 1992):

How the values were obtained:
[1] = citrate buffer, pH 3, 45° C.
Description: Solutions of rhEGF and rhEGF-Glu11 were prepared in citrate buffer, pH 3, and were maintained at 45° C. Aliquots were drawn on days 0, 1, 7, and 15, and were analyzed by RP-HPLC (as described in Example 2).

[2] = stored as a lyophilized powder; cited from earlier work
[3] = forms isolated from recombinant yeast culture; cited from earlier work

Compound | degradation products versus original protein by RP-HPLC ([1]; by day 15) | degradation seen in RP-HPLC chromatograms ([1]; days 0, 1, 7 and 15) | stability on storage [2] | EGF activity [3]
CC[C@H](C)[C@@H]1NC(=O)[C@H](Cc2ccc(O)cc2)NC(=O)CNC(=O)[C@H](C(C)C)NC(=O)[C@H](C(C)C)NC(=O)[C@@H](NC(=O)[C@H](CC(N)=O)NC(=O)[C@@H]2CSSC[C@@H]3NC(=O)[C@H](Cc4ccc(O)cc4)NC(=O)CNC(=O)[C@H](CC(=O)O)NC(=O)[C@H](Cc4c[nH]cn4)NC(=O)[C@H](CO)NC(=O)[C@H](CC(C)C)NC(=O)[C@@H]4CCCN4C(=O)[C@@H](NC(=O)[C@H](CCC(=O)O)NC(=O)[C@H](CO)NC(=O)[C@H](CC(=O)O)NC(=O)[C@H](CO)NC(=O)[C@@H](N)CC(N)=O)CSSC[C@H](NC(=O)[C@H](C(C)C)NC(=O)CNC(=O)[C@H](CC(=O)O)NC(=O)[C@H](Cc4c[nH]cn4)NC(=O)[C@H](CC(C)C)NC3=O)C(=O)N[C@@H](CCSC)C(=O)N[C@@H](Cc3ccc(O)cc3)C(=O)N[C@@H]([C@@H](C)CC)C(=O)N[C@@H](CCC(=O)O)C(=O)N[C@@H](C)C(=O)N[C@@H](CC(C)C)C(=O)N[C@@H](CC(=O)O)C(=O)N[C@@H](CCCCN)C(=O)N[C@@H](Cc3ccc(O)cc3)C(=O)N[C@@H](C)C(=O)N2)CSSC[C@@H](C(=O)N[C@@H](CCC(N)=O)C(=O)N[C@@H](Cc2ccc(O)cc2)C(=O)N[C@@H](CCCNC(=N)N)C(=O)N[C@@H](CC(=O)O)C(=O)N[C@@H](CC(C)C)C(=O)N[C@@H](CCCCN)C(=O)N[C@@H](Cc2c[nH]c3ccccc23)C(=O)N[C@@H](Cc2c[nH]c3ccccc23)C(=O)N[C@@H](CCC(=O)O)C(=O)N[C@@H](CC(C)C)C(=O)N[C@@H](CCCNC(=N)N)C(=O)O)NC(=O)[C@H](CCCNC(=N)N)NC(=O)[C@H](CCC(=O)O)NC(=O)CNC1=O [EGF-Asp11] | the degradation products outweighed the original rhEGF | rapidly degraded to rhEGF-isoaspartyl11 | – | –
EGF-D: 52-amino acid sequence obtained by removing the C-terminal arg of EGF (NSDSECPLSHDGYCLHDGVCMYIEALDKYACNCVVGYIGERCQYRDLKWWEL; not fully specified; Epidermal growth factor; UniProt P01133 971-1022, looked up, fragment) | – | – | stable | full EGF activity
EGF-B: EGF-D wherein the C-terminal arg-leu has been removed (NSDSECPLSHDGYCLHDGVCMYIEALDKYACNCVVGYIGERCQYRDLKWWE; not fully specified; Epidermal growth factor; UniProt P01133 971-1021, looked up, fragment) | – | – | – | full EGF activity
